Among the data in article PMC4335062, “Data-Driven Prediction and Design of bZIP Coiled-Coil Interactions” (PLoS Computational Biology, 2015) are Kd values, retold here.

Where no end group is shown, it is not given here. Bounds are passed on as bounds.

One data set addresses T1, XBP1 (Homo sapiens, UniProt P17861).
T1 construct: made in house
T1 sequence (P17861 70-133 limits assumed): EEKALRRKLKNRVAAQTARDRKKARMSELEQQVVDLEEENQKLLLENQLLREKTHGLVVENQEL
Conditions: native human bZIP binding XBP1; cited from earlier work. An excerpt:
We chose five human bZIP proteins as targets: X-box binding protein 1 (XBP1), JUN, Activating Transcription Factor (ATF) 3, ATF4 and ATF5. These are proteins for which an interaction partner was designed in prior work, but either the affinity or the specificity of the design left room for improvement. […] For example, XBP1-d1 was composed of heptads from N. vectensis, C. elegans and C. intestinalis proteins, and from previously designed bZIP binders. We also note that our four designs were composed of 24 distinct, non-recurring heptads. Thus, our design al ... || We compared the new designs to designed peptides targeting XBP1 and JUN reported by Grigoryan et al. for which FRET measurements were available. […] It should be noted that XBP1 presents a challenging target because three of its core a positions are occupied by asparagines. A matching asparagi ...

The target in data set [1] is partner bZIP coiled coil (Protein2). Particulars: Protein2 = CI12 (CI), inter; 5000 assigned if Kd >5,000 nM or no binding; cited from earlier work. Here is the method:
Supplement pcbi.1004046.s020.csv, table | column: Kd || Fig 4 Designed bZIP-binding peptides inhibit interactions of native bZIP dimers. […] The dissociation constants at the indicated temperatures are Kd ≤ 1 nM for FOS-JUN, Kd ≤1 nM for XBP1-CREBZF, and Kd = 60 nM for ATF4-FOS, according to [18]. Fluorescence intensities were measured at both 37°C and 23°C, a ...

The target in data set [2] is off-target bZIPs of XBP1-d1 (among the 32 C-terminally fluoresceinated human bZIPs tested) (human). Description: FRET or BRET; direct-binding FRET at 37°C; 10 nM fluorescein-labelled bZIP (donor), rhodamine-labelled design (acceptor) titrated 0 to 1 μM; 150 mM KCl, 50 mM potassium phosphate pH 7.4, 0.1% Tween-20, 0.1% BSA.
The target of data set [3] is T2, X-box binding protein 1 (XBP1) bZIP construct, C-terminally fluoresceinated (human, UniProt P17861 70-133, fluorescein at the C-terminus).
T2 construct: source: previously described, donated by A.W. Reinke [18]
T2 sequence (looked up): T1 sequence (P17861 70-133 limits assumed)
The description is as above. Conditions: both partners purified.

Data set [4] concerns the target T3, JUN bZIP construct, C-terminally fluoresceinated (human, UniProt P05412 252-315, fluorescein at the C-terminus).
T3 construct: source: previously described, donated by A.W. Reinke [18]
The data set is described as above. Particulars: both partners purified.

The target of another data set is JUN (Homo sapiens, UniProt P05412). Also on record: made in house. Particulars: native human bZIP binding JUN; cited from earlier work. From the text:
For most bZIP pairs, binding of the N-terminally labeled designed peptide to a C-terminally labeled target gave very little signal, and such curves could rarely be fit to provide Kd values (S9–S12 Tables). In a few cases where interactions could be quantified with both N- and C-terminal dye labeling, we observed that the affinity of N-terminally labeled designs for C-terminally labeled targets was somewhat weaker than the affinity of C-terminally labeled designs (S5–S12 Tables). Enhanced affinities attributable to dye interactions have been reported previously. […] For example, XBP1-d1 was composed of heptads from N. vectensis, C. elegans and C. intestinalis proteins, and from previously designed bZIP binders. We also note that our four designs were composed of 24 distinct, non-recurring heptads. Thus, our design al ... || We compared the new designs to designed peptides targeting XBP1 and JUN reported by Grigoryan et al. for which FRET measurements were available. […] It should be noted that XBP1 presents a challenging target because three of its core a positions are occupied by asparagines. A matching asparagi ...

The target of a further data set is T4, ATF4 (Homo sapiens, UniProt P18848).
T4 construct: made in house
T4 sequence (P18848 278-341 limits assumed): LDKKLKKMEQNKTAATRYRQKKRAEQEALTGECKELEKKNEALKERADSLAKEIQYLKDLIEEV
Particulars: native human bZIP binding ATF4; cited from earlier work. An excerpt:
For example, XBP1-d1 was composed of heptads from N. vectensis, C. elegans and C. intestinalis proteins, and from previously designed bZIP binders. We also note that our four designs were composed of 24 distinct, non-recurring heptads. Thus, our design al ...

Data set [5] deals with the molecule itself. Description: FRET or BRET; homodimer Kd of the designed peptide determined by FRET, 23°C; dimer to monomers.
Data set [6] deals with T5, Activating Transcription Factor 4 (ATF4) bZIP construct, C-terminally fluoresceinated (human, UniProt P18848 278-351, fluorescein at the C-terminus).
T5 construct: source: previously described, donated by A.W. Reinke [18]
T5 sequence (looked up): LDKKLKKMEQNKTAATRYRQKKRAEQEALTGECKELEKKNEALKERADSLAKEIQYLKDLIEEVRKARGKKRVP
In words: FRET or BRET; direct-binding FRET at 37°C; 10 nM fluorescein-labelled bZIP (donor), rhodamine-labelled design (acceptor) titrated 0 to 1 μM; 150 mM KCl, 50 mM potassium phosphate pH 7.4, 0.1% Tween-20, 0.1% BSA. Conditions: both partners purified.

JUN, sequence (P05412 252-315 limits assumed): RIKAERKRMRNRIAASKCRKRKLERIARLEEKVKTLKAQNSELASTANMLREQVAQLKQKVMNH
T3 sequence (P05412 252-315): as the sequence (P05412 252-315 limits assumed) above

Take ATF6: native human bZIP coiled coil: the results for the Kd (with XBP1; in data set [1]) were 1 nM and 5000 nM, respectively.

B1: XBP1-d1, rhodamine-labelled at the C-terminus (designed binder)
chain: GESKEYKKGSGSEREAQLENRVAHLKEKNQELKAQNLHLKEALSEAQNRNQELKNDAGC(Rhodamine Red C2‑maleimide)
notes: solubility linker after the His tag; added at the C-terminus for labelling; built from heptads of native and previously designed bZIPs; source: E. coli RP3098, purified (Ni-NTA under denaturing conditions, reverse-phase HPLC)
In the case of B1, the Kd is more than 5000 nM in [2] and 172 ± 65 nM in data set [3].

B2: JUN-d1, rhodamine-labelled at the C-terminus (designed binder)
chain: GESKEYKKGSGSSIAATLEKEEANLEKMNKKLAAEIESLLKEKDKLESVLNYHEGC(Rhodamine Red C2‑maleimide)
notes: solubility linker after the His tag; added at the C-terminus for labelling; source: E. coli RP3098, purified (Ni-NTA under denaturing conditions, reverse-phase HPLC)
Regarding B2, in data set [4], the Kd was 5.8 ± 0.7 nM.

B3: FOS: native human bZIP coiled coil (protein)
chain: EEKRRIRRERNKMAAAKCRNRRRELTDTLQAETDQLEDEKSALQTEIANLLKEKEKLEFILAAH
modifications: C-terminal TAMRA when used as FRET acceptor
For B3, in the data set with JUN, the Kd was 1 nM.

B4: ATF6B: native human bZIP coiled coil (protein)
chain: MAELMLLSEIADPTRFFTDNLLSPEDWGLQNSTLYSGLDEVAEEQTQLFRCPEQDVPFDGSSLDVGMDVSPSEPPWELLPIFPDLQVKSEPSSPCSSSSLSSESSRLSTEPSSEALGVGEVLHVKTESLAPPLCLLGDDPTSSFETVQINVIPTSDDSSDVQTKIEPVSPCSSVNSEASLLSADSSSQAFIGEEVLEVKTESLSPSGCLLWDVPAPSLGAVQISMGPSLDGSSGKALPTRKPPLQPKPVVLTTVPMPSRAVPPSTTVLLQSLVQPPPVSPVVLIQGAIRVQPEGPAPSLPRPERKSIVPAPMPGNSCPPEVDAKLLKRQQRMIKNRESACQSRRKKKEYLQGLEARLQAVLADNQQLRRENAALRRRLEALLAENSELKLGSGNRKVVCIMVFLLFIAFNFGPVSISEPPSAPISPRMNKGEPQPRRHLLGFSEQEPVQGVEPLQGSSQGPKEPQPSPTDQPSFSNLTAFPGGAKELLLRDLDQLFLSSDCRHFNRTESLRLADELSGWVQRHQRGRRKIPQRAQERQKSQPRKKSPPVKAVPIQPPGPPERDSVGQLQLYRHPDRSQPAFLDAIDRREDTFYVVSFRRDHLLLPAISHNKTSRPKMSLVMPAMAPNETLSGRGAPGDYEEMMQIECEVMDTRVIHIKTSTVPPSLRKQPSPTPGNATGGPLPVSAASQAHQASHQPLYLNHP
modifications: fluorescein at the C-terminus (FRET donor) or TAMRA (FRET acceptor), by assay
notes: native human bZIP coiled coil
For the molecule B4, in the data set with ATF4, the Kd was not below 5000 nM.

B5: ATF4-d1, rhodamine-labelled at the C-terminus (designed binder)
chain: GESKEYKKGSGSNQIKTLRTRLSKLRKDNLQLEKDIANLERKAKDLRAEKEQLEYELGC(Rhodamine Red C2‑maleimide)
notes: solubility linker after the His tag; added at the C-terminus for labelling; also used for the homodimer row; source: E. coli RP3098, purified (Ni-NTA under denaturing conditions, reverse-phase HPLC)
On to B5, for which the Kd came to 36.3 nM in data set [5] and 9.3 ± 2.3 nM in data set [6].
